The results in this text go back to PMC12711026 (PLOS Pathogens, 2025).

In this experiment the target is T1, carrier-free recombinant human Netrin-1-His (human, UniProt O95631 25-604).
T1 construct: also called rNetrin-1-His; rNetrin-1
The experiment can be described thus: pull-down; Pierce Pull-Down Biotinylated Protein:Protein Interaction Kit; 150 μL of 0.5 mg/mL biotinylated peptide on streptavidin gel; 100 μL of 1 ng/μL recombinant LHBs with 0, 1, 2 or 4 ng/μL rNetrin-1-His; western blot. The conditions noted are these: both partners purified. A general note: Immunoblotting shows a protein as a band on a membrane.

Where no end group is shown, it is not given here. The star is where a group is joined. Biotin = O=C1N[C@H]2[C@H](CS[C@H]2CCCCC(=O)*)N1

For the molecule Biotin-NSKMYLKTRA (also called C-terminal HBS of LIPG) [biotinylated LIPG-CTD HBS peptide (amino acids 331–340)], the binding result was “binds”.
